Target: T1, homoserine dehydrogenase (Hom) (Corynebacterium glutamicum, UniProt P08499, R407H)
T1 construct: each supernatant was recovered through two centrifugations (13,000 rpm, 4° C., 30 minutes) and used as a crude extract for measuring the activity of Hom; endogenous in cells; host or cells: Crude cell extracts of Corynebacterium glutamicum ATCC13032 (wild type) and of CA09-0900 (ATCC13032 with chromosomal hom R407H)
Assay: Measurement of Hom activity (U) and desensitization by L-threonine in crude extracts
Format: biochemical
Settings: 10 mM L-threonine, compared with wild-type Hom
Procedure: The activity of the enzyme Hom was measured in the prepared strain. The wild-type strain ATCC13032 (the control group) and the CA09-0900 strain prepared in Example 4 were each inoculated into 25 mL of the seed medium and cultured until the strains reached the late log phase. The cells of each strain were recovered by centrifugation, washed twice with a 0.1 M potassium phosphate buffer (pH 7.6), and finally suspended in 2 mL of the same buffer containing glycerol at a concentration of 30%. Each cell suspension was physically disrupted by a conventional glass bead vortexing method for 10 minutes, and each supernatant was recovered through two centrifugations (13,000 rpm, 4° C., 30 minutes) and used as a crude extract for measuring the activity of Hom. For the measurement of the activity of Hom, a […] (0.1 mL) was added to a reaction solution for measuring the enzyme activity (a potassium phosphate (pH 7.0) buffer, 25 mM NADPH, 5 mM aspartate semi-aldehyde) and reacted at 30° C. The Hom enzyme activity U was defined as the number of NADPH consumed per minute according to the presence of L-threonine (0 mM, 10 mM), and the measurement results of the enzyme activity are shown in Table 2 below.

B1: Hom including the R407H modification: modified homoserine dehydrogenase, arginine at position 407 substituted with histidine (protein)
chain: MTSASAPSFNPGKGPGSAVGIALLGFGTVGTEVMRLMTEYGDELAHRIGGPLEVRGIAVSDISKPREGVAPELLTEDAFALIEREDVDIVVEVIGGIEYPREVVLAALKAGKSVVTANKALVAAHSAELADAAEAANVDLYFEAAVAGAIPVVGPLRRSLAGDQIQSVMGIVNGTTNFILDAMDSTGADYADSLAEATRLGYAEADPTADVEGHDAASKAAILASIAFHTRVTADDVYCEGISNISAADIEAAQQAGHTIKLLAICEKFTNKEGKSAISARVHPTLLPVSHPLASVNKSFNAIFVEAEAAGRLMFYGNGAGGAPTASAVLGDVVGAARNKVHGGRAPGESTYANLPIADFGETTTRYHLDMDVEDRVGVLAELASLFSEQGISLRTIRQEERDDDAHLIVVTHSALESDLSRTVELLKAKPVVKAINSVIRLERD
modifications: homoserine dehydrogenase R407H
notes: modified homoserine dehydrogenase, arginine at position 407 substituted with histidine
desensitization to L-threonine: the inhibition of the activity was reduced
